Data on one protein can be found in patent EP1471146A2 (Novartis AG, dated 2004).

This data set deals with the molecule itself. Kind of data set: Western blot of soluble nuclear extracts, seminative electrophoresis (self-association, homotrimer). In general terms: A western blot detects proteins with antibodies after separation by electrophoresis.

B1: recombinant adenovirus type 5 (Ad5) fiber protein expressed from pCLF in cell lines 211A, 211B and 211R (other)
chain: MKRARPSEDTFNPVYPYDTETGPPTVPFLTPPFVSPNGFQESPPGVLSLRLSEPLVTSNGMLALKMGNGLSLDEAGNLTSQNVTTVSPPLKKTKSNINLEISAPLTVTSEALTVAAAAPLMVAGNTLTMQSQAPLTVHDSKLSIATQGPLTVSEGKLALQTSGPLTTTDSSTLTITASPPLTTATGSLGIDLKEPIYTQNGKLGLKYGAPLHVTDDLNTLTVATGPGVTINNTSLQTKVTGALGFDSQGNMQLNVAGGLRIDSQNRRLILDVSYPFDAQNQLNLRLGQGPLFINSAHNLDINYNKGLYLFTASNNSKKLEVNLSTAKGLMFDATAIAINAGDGLEFGSPNAPNTNPLKTKIGHGLEFDSNKAMVPKLGTGLSFDSTGAITVGNKNNDKLTLWTTPAPSPNCRLNAEKDAKLTLVLTKCGSQILATVSVLAVKGSLAPISGTVQSAHLIIRFDENGVLLNNSFLDPEYWNFRNGDLTEGTAYTNAVGFMPNLSAYPKSHGKTAKSNIVSQVYLNGDKTKPVTLTITLNGTQETGDTTPSAYSMSFSWDWSGHNYINEIFATSSYTFSYIAQE
notes: Monomer 62 kD, homotrimer 186 kD; Expressed in 293-derived lines 211A, 211B and 211R; also called recombinant fiber; type 5 fiber protein
Turning to B1, the binding result is on record as “binds”.
